We go through seven molecules from patent US20220119490A1 (Genentech, published 2022).

The chains are these.
T1: IL6R expressed on cells (human, UniProt P08887 20-468)
T1 construct: whole, on cells; C-terminally tagged in the co-IP; also called IL6R-HA
T1 sequence (looked up): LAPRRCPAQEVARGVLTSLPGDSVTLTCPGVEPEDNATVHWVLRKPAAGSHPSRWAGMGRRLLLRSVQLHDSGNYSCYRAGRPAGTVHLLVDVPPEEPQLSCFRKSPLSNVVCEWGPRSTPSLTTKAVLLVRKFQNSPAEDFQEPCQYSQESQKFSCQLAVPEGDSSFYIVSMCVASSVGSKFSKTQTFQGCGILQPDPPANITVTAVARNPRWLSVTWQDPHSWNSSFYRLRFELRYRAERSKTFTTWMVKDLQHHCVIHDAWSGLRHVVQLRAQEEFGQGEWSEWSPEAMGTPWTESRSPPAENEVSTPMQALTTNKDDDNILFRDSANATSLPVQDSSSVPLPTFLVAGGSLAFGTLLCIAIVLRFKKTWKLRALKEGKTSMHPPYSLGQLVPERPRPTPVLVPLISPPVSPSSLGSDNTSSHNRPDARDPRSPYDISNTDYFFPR

T2: EPHA3 extracellular domain (human, UniProt P29320 21-541)
T2 construct: extracellular domain; ECD construct; also called ephrin type-A receptor 3
T2 sequence (looked up): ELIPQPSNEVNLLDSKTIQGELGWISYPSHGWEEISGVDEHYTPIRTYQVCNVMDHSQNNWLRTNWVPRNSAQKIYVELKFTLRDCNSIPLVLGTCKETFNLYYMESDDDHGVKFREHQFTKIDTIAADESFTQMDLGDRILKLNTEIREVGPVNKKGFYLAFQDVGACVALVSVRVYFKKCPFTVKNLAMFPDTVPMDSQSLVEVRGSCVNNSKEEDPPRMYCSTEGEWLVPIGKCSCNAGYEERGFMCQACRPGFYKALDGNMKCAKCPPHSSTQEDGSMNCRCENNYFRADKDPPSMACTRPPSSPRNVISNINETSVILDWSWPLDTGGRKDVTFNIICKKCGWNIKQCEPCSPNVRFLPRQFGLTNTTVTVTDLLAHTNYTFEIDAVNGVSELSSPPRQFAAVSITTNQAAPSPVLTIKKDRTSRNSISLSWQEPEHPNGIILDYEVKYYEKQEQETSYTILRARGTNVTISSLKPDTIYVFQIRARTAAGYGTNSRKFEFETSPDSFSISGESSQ

T3: CD177 extracellular domain (human, UniProt Q8N6Q3 22-408, limits assumed)
T3 construct: extracellular domain; ECD-gD-GPI on COS-7 cells in the screen; recombinant ECD in SPR and CAF assays; streptavidin tetramer in organoid cultures; also called NB1; PRV1
T3 sequence (looked up): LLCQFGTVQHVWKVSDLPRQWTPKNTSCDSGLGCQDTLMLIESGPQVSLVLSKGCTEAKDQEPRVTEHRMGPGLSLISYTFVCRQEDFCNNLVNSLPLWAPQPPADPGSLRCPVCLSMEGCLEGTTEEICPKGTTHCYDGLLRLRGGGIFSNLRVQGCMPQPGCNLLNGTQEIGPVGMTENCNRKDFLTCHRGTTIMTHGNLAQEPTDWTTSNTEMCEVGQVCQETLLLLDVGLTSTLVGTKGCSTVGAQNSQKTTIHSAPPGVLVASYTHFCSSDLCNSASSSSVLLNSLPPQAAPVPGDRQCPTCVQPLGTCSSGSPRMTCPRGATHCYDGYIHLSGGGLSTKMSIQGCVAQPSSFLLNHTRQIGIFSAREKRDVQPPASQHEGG

B1: LILRB5 expressed on cells (receptor, human, UniProt O75023 24-590, looked up)
chain: GTLPKPTLWAEPASVIARGKPVTLWCQGPLETEEYRLDKEGLPWARKRQNPLEPGAKAKFHIPSTVYDSAGRYRCYYETPAGWSEPSDPLELVATGFYAEPTLLALPSPVVASGGNVTLQCDTLDGLLTFVLVEEEQKLPRTLYSQKLPKGPSQALFPVGPVTPSCRWRFRCYYYYRKNPQVWSNPSDLLEILVPGVSRKPSLLIPQGSVVARGGSLTLQCRSDVGYDIFVLYKEGEHDLVQGSGQQPQAGLSQANFTLGPVSRSHGGQYRCYGAHNLSPRWSAPSDPLDILIAGLIPDIPALSVQPGPKVASGENVTLLCQSWHQIDTFFLTKEGAAHPPLCLKSKYQSYRHQAEFSMSPVTSAQGGTYRCYSAIRSYPYLLSSPSYPQELVVSGPSGDPSLSPTGSTPTPGPEDQPLTPTGLDPQSGLGRHLGVVTGVSVAFVLLLFLLLFLLLRHRHQSKHRTSAHFYRPAGAAGPEPKDQGLQKRASPVADIQEEILNAAVKDTQPKDGVEMDAPAAASEAPQDVTYAQLHSLTLRREATEPPPSQEREPPAEPSIYAPLAIH
notes: whole, on cells
B2: CNTFR extracellular domain (receptor, human, UniProt P26992 23-342, looked up)
chain: QRHSPQEAPHVQYERLGSDVTLPCGTANWDAAVTWRVNGTDLAPDLLNGSQLVLHGLELGHSGLYACFHRDSWHLRHQVLLHVGLPPREPVLSCRSNTYPKGFYCSWHLPTPTYIPNTFNVTVLHGSKIMVCEKDPALKNRCHIRYMHLFSTIKYKVSISVSNALGHNATAITFDEFTIVKPDPPENVVARPVPSNPRRLEVTWQTPSTWPDPESFPLKFFLRYRPLILDQWQHVELSDGTAHTITDAYAGKEYIIQVAAKDNEIGTWSDWSVAAHATPWTEEPRHLTTEAQAAETTTSTTSSLAPPPTTKICDPGELGS
notes: extracellular domain; Soluble query, streptavidin tetramer
B3: LILRB1 extracellular domain (receptor, human, UniProt Q8NHL6 24-461, looked up)
chain: GHLPKPTLWAEPGSVITQGSPVTLRCQGGQETQEYRLYREKKTALWITRIPQELVKKGQFPIPSITWEHAGRYRCYYGSDTAGRSESSDPLELVVTGAYIKPTLSAQPSPVVNSGGNVILQCDSQVAFDGFSLCKEGEDEHPQCLNSQPHARGSSRAIFSVGPVSPSRRWWYRCYAYDSNSPYEWSLPSDLLELLVLGVSKKPSLSVQPGPIVAPEETLTLQCGSDAGYNRFVLYKDGERDFLQLAGAQPQAGLSQANFTLGPVSRSYGGQYRCYGAHNLSSEWSAPSDPLDILIAGQFYDRVSLSVQPGPTVASGENVTLLCQSQGWMQTFLLTKEGAADDPWRLRSTYQSQKYQAEFPMGPVTSAHAGTYRCYGSQSSKPYLLTHPSDPLELVVSGPSGGPSSPTTGPTSTSGPEDQPLTPTGSDPQSGLGRHLGV
notes: extracellular domain; also called leukocyte immunoglobulin-like receptor subfamily B member 1
B4: EDAR expressed on cells (receptor, human, UniProt Q9UNE0 27-448, looked up)
chain: EYSNCGENEYYNQTTGLCQECPPCGPGEEPYLSCGYGTKDEDYGCVPCPAEKFSKGGYQICRRHKDCEGFFRATVLTPGDMENDAECGPCLPGYYMLENRPRNIYGMVCYSCLLAPPNTKECVGATSGASANFPGTSGSSTLSPFQHAHKELSGQGHLATALIIAMSTIFIMAIAIVLIIMFYILKTKPSAPACCTSHPGKSVEAQVSKDEEKKEAPDNVVMFSEKDEFEKLTATPAKPTKSENDASSENEQLLSRSVDSDEEPAPDKQGSPELCLLSLVHLAREKSATSNKSAGIQSRRKKILDVYANVCGVVEGLSPTELPFDCLEKTSRMLSSTYNSEKAVVKTWRHLAESFGLKRDEIGGMTDGMQLFDRISTAGYSIPELLTKLVQIERLDAVESLCADILEWAGVVPPASQPHAAS
notes: whole, on cells; C-terminally tagged in the co-IP; also called EDAR-HA
B5: LILRA3 (ECD-Fc fusion protein) (Fc fusion, human, UniProt Q8N6C8 24-439, looked up)
chain: GPLPKPTLWAEPGSVITQGSPVTLRCQGSLETQEYHLYREKKTALWITRIPQELVKKGQFPILSITWEHAGRYCCIYGSHTAGLSESSDPLELVVTGAYSKPTLSALPSPVVTSGGNVTIQCDSQVAFDGFILCKEGEDEHPQCLNSHSHARGSSRAIFSVGPVSPSRRWSYRCYGYDSRAPYVWSLPSDLLGLLVPGVSKKPSLSVQPGPVVAPGEKLTFQCGSDAGYDRFVLYKEWGRDFLQRPGRQPQAGLSQANFTLGPVSRSYGGQYTCSGAYNLSSEWSAPSDPLDILITGQIRARPFLSVRPGPTVASGENVTLLCQSQGGMHTFLLTKEGAADSPLRLKSKRQSHKYQAEFPMSPVTSAHAGTYRCYGSLSSNPYLLTHPSDPLELVVSGAAETLSPPQNKSDSKAGE
notes: extracellular domain; Immobilized on the SPR chip
B6: podoplanin (PDPN) extracellular domain (receptor, human, UniProt Q86YL7 23-131, looked up)
chain: ASTGQPEDDTETTGLEGGVAMPGAEDDVVTPGTSEDRYKSGLTTLVATSVNSVTGIRIEDLPTSESTVHAQEQSPSATASNVATSHSTEKVDGDTQTTVEKDGLSTVTL
modifications: biotinylated Avi tag in the tetramer
notes: extracellular domain; Streptavidin-APC tetramer in the screens; monomeric Avi-tagged ectodomain for KD; also called gp38; Aggrus
B7: LILRB5 extracellular domain (receptor, human, UniProt O75023 24-458, looked up)
chain: GTLPKPTLWAEPASVIARGKPVTLWCQGPLETEEYRLDKEGLPWARKRQNPLEPGAKAKFHIPSTVYDSAGRYRCYYETPAGWSEPSDPLELVATGFYAEPTLLALPSPVVASGGNVTLQCDTLDGLLTFVLVEEEQKLPRTLYSQKLPKGPSQALFPVGPVTPSCRWRFRCYYYYRKNPQVWSNPSDLLEILVPGVSRKPSLLIPQGSVVARGGSLTLQCRSDVGYDIFVLYKEGEHDLVQGSGQQPQAGLSQANFTLGPVSRSHGGQYRCYGAHNLSPRWSAPSDPLDILIAGLIPDIPALSVQPGPKVASGENVTLLCQSWHQIDTFFLTKEGAAHPPLCLKSKYQSYRHQAEFSMSPVTSAQGGTYRCYSAIRSYPYLLSSPSYPQELVVSGPSGDPSLSPTGSTPTPGPEDQPLTPTGLDPQSGLGRHLG
notes: extracellular domain

Assay [1] concerns the target T4, LDLR extracellular domain (human, UniProt P01130 22-788).
T4 construct: extracellular domain; Soluble query, streptavidin tetramer; also called low-density lipoprotein receptor
Kind of assay: cell surface interaction assay: ECD tetramer on transfected cells (FIG. 5N).

Assay [2] has as its target T5, LILRB4 expressed on cells (human, UniProt Q8NHJ6 22-448).
T5 construct: whole, on cells; C-terminally tagged in the co-IP; also called LILRB4-FLAG
The description is as above.

The target in assay [3] is T6, FLT4 expressed on cells (human, UniProt P35916 25-1363).
T6 construct: whole, on cells; also called VEGFR3; vascular endothelial growth factor receptor 3
T6 sequence (P35916 25-1363): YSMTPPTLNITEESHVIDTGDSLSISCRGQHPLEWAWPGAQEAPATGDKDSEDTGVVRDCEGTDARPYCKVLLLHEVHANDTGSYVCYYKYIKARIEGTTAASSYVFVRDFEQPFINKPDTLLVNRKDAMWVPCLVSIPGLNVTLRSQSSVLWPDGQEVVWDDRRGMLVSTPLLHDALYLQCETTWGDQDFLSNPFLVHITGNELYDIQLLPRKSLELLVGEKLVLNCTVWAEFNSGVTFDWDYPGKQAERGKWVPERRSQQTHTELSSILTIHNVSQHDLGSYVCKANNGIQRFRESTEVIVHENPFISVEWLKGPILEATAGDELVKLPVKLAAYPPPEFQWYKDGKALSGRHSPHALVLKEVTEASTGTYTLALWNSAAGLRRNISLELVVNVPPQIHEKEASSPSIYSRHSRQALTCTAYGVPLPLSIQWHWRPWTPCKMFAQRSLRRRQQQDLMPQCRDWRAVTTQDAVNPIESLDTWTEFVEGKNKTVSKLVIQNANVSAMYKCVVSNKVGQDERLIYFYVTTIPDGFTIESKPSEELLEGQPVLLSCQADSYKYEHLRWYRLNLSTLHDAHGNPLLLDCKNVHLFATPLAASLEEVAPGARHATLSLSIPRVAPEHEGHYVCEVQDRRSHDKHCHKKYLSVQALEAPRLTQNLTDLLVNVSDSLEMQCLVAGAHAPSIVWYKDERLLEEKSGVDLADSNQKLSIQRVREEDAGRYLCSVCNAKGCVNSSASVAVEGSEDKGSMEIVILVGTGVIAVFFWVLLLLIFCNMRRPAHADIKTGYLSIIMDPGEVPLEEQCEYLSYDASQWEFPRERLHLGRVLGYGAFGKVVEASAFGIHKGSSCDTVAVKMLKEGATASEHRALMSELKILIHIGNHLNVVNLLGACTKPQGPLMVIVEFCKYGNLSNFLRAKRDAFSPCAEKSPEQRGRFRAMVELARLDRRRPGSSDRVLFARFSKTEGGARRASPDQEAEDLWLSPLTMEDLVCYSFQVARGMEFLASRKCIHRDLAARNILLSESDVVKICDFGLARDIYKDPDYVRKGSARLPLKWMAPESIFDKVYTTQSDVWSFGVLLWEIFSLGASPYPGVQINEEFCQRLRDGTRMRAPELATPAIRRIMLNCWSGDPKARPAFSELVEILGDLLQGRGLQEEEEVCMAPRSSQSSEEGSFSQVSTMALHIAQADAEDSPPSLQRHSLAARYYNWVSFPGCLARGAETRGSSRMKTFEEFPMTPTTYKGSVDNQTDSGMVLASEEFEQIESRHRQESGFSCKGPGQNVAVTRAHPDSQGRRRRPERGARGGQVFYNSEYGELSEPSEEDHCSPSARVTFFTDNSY
Briefly: cell surface interaction assay: soluble multimerized LILRB on transfected cells.

In assay [4] the target is T1, IL6R expressed on cells. The description is as above.
For assay [5], the target named is B3. Described as above.
Assay [6] has as its target T7, EPHA5 (human, UniProt P54756).
T7 construct: extracellular domain; analyte at 250 nM on immobilized LILRA3
Kind of assay: SPR, LILRA3 ECD-Fc immobilized, ECD-Fc analytes at 250 nM. The source says: (§1) An irrelevant Fc-tagged protein was used as a control. Sensorgram shown is representative of at least 3 independent runs.

Assay [7] concerns the target T2, EPHA3 extracellular domain. The description is as above.
Excerpt: as §1

For assay [8], the target named is T3, CD177 extracellular domain. Briefly: SPR, fit to equilibrium; CD177 ECD immobilized, monomeric Avi-tagged PDPN ectodomain as analyte. As for the experimental part: (§2) SPR was measured using a Proteon XPR36 Instrument (Biorad) or a Biacore 3000 (GE Healthcare). […] Bulk refractive index changes were removed by substrating a reference flow response. For KD calculations, 300-400 resonance units were immobilized, and kinetic data were fit to equilibrium or a Langmuir model to calculate kinetic parameters for CD177 and CLEC-2 binding, respectively. […] All sensorgrams were analyzed with BiaEvaluation 4.1 (Biacore) or Proteon Manager 3.1.0.6 (Proteon) software.

The target in assay [9] is T8, CLEC-2 extracellular domain (human, UniProt Q9P126 55-229).
T8 construct: extracellular domain; Recombinant ECD in SPR and CAF assays; streptavidin tetramer in organoid cultures; also called CLEC1B; rCLEC-2
T8 sequence (Q9P126 55-229): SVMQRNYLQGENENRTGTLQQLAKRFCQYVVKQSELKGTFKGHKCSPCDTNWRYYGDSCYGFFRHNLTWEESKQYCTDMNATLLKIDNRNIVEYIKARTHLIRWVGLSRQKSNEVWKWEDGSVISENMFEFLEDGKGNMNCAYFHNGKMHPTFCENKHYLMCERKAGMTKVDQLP
Kind of assay: SPR, Langmuir model; CLEC-2 ECD immobilized, monomeric Avi-tagged PDPN ectodomain as analyte. As for the experimental part:
as §2

Assay [10] has as its target T9, LDLR expressed on cells (human, UniProt P01130 22-860).
T9 construct: whole, on cells
Kind of assay: cell surface interaction assay: soluble multimerized LILRB on transfected cells.

A word on the Kd: it is the concentration at which binding is half-saturated. A lower Kd goes with a tighter complex.

T9 sequence (P01130 22-860): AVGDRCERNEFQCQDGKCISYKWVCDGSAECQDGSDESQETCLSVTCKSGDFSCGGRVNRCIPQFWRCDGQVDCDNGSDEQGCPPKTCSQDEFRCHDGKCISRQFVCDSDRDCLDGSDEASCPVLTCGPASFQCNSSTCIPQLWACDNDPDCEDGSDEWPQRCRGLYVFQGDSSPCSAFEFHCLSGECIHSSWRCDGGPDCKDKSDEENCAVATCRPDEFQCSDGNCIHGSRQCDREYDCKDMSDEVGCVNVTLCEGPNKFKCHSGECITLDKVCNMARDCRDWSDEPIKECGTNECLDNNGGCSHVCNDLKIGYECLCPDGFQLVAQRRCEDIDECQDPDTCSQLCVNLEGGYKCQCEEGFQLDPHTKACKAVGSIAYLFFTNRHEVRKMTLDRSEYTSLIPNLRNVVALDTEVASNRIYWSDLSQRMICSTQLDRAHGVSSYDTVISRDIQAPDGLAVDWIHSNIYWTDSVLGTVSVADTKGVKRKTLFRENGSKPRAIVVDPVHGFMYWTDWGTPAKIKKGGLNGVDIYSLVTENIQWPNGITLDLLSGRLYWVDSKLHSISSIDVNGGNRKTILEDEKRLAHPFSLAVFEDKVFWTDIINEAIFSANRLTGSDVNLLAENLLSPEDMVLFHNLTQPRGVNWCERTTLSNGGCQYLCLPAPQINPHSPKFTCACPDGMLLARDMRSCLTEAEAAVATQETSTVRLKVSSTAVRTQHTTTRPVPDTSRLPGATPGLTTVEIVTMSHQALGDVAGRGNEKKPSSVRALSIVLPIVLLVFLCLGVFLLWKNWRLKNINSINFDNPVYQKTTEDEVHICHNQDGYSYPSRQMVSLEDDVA
T7 sequence (P54756 25-573): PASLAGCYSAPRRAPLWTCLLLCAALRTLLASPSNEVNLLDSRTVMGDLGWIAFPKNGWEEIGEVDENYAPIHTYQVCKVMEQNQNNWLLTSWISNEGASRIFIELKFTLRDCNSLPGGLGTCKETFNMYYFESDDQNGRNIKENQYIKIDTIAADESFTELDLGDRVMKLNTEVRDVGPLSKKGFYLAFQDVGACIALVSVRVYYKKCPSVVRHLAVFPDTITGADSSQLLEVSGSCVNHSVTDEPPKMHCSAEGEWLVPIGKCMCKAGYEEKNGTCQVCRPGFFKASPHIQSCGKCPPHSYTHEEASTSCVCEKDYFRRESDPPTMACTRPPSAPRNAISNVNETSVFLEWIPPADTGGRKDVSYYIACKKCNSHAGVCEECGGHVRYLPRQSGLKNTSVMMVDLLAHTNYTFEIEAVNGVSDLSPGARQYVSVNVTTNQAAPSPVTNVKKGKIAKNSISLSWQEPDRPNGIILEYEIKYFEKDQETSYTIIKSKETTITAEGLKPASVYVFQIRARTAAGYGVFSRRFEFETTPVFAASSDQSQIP
T4 sequence (P01130 22-788): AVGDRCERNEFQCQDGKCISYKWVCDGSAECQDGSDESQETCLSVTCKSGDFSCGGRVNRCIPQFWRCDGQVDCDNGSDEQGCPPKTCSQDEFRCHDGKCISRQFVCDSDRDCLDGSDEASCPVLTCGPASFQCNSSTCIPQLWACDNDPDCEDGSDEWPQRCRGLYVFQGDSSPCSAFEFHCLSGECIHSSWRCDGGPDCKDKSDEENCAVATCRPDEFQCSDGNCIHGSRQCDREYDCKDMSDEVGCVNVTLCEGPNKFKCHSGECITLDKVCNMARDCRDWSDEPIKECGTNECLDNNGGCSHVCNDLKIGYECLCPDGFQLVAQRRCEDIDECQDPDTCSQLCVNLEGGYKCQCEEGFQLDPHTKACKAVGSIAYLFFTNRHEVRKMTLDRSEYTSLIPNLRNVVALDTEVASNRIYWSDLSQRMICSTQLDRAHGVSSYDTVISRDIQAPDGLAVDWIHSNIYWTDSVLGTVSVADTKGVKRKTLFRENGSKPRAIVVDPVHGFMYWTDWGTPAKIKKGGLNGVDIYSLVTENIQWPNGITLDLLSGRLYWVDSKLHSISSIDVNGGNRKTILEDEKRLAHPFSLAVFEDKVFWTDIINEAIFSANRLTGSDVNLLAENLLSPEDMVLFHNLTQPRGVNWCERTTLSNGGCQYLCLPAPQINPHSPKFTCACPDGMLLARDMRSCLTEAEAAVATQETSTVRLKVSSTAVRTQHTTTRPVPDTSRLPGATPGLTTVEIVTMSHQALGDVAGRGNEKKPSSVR

For B1, the binding result in [1] is on record as “binds”.

For B2, the binding result in assay [2] is “binds”.

For the molecule B3, the binding result in assay [3] and in [4] was “binds” in each case.

Regarding B4, the binding result in assay [5] was “binds”.

As to B5, the binding result in assay [6] is “no binding (tested: 250 nM)”; in [7], “binds”.

For the molecule B6, the values for the Kd in assay [8] and in assay [9] were 3.3 µM and 0.21 µM, respectively.

As for B7, the binding result in assay [10] is “binds”.
